According to PMC4681132 (Nature, 2015):

T1: RNA polymerase III subunit C160 (S. cerevisiae, UniProt P04051 1-1460)
T1 sequence: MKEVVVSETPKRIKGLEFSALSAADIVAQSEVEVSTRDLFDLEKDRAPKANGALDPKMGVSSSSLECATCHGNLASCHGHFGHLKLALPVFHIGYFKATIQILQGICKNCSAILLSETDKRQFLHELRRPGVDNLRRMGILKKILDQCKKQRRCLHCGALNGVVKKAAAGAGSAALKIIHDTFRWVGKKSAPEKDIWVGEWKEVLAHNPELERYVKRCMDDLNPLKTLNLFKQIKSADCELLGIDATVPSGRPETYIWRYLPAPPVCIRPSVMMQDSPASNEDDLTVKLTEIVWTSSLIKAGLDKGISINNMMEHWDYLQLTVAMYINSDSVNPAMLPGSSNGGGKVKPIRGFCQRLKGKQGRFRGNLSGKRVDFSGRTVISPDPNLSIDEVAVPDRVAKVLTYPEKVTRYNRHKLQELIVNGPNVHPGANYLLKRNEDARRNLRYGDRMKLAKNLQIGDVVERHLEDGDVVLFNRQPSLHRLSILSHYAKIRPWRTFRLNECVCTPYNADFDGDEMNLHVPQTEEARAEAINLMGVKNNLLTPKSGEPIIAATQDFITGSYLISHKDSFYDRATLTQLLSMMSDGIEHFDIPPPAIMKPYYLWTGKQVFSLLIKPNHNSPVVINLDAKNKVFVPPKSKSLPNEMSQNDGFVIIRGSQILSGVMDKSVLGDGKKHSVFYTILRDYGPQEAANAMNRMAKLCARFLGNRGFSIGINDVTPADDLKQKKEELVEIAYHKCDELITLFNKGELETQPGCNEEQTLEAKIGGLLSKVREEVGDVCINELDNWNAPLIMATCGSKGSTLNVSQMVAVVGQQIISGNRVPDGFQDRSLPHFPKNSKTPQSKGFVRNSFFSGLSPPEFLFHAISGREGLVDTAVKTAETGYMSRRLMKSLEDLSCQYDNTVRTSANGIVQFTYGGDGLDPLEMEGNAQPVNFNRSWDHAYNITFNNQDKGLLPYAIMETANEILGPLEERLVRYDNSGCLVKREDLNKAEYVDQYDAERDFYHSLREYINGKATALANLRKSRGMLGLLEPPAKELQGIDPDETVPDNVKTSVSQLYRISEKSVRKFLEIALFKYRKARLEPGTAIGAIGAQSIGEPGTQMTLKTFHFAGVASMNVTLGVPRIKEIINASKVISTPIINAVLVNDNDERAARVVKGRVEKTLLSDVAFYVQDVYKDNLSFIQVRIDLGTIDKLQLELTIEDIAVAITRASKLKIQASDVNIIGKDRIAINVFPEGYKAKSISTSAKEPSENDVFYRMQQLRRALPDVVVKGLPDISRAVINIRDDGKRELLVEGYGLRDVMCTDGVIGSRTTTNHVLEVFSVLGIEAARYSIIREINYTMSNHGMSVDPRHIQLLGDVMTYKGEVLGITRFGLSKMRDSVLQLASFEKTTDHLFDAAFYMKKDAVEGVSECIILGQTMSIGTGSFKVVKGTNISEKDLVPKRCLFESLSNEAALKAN

T2: RNA polymerase III subunit C128 (S. cerevisiae, UniProt P22276 1-1149)
T2 sequence: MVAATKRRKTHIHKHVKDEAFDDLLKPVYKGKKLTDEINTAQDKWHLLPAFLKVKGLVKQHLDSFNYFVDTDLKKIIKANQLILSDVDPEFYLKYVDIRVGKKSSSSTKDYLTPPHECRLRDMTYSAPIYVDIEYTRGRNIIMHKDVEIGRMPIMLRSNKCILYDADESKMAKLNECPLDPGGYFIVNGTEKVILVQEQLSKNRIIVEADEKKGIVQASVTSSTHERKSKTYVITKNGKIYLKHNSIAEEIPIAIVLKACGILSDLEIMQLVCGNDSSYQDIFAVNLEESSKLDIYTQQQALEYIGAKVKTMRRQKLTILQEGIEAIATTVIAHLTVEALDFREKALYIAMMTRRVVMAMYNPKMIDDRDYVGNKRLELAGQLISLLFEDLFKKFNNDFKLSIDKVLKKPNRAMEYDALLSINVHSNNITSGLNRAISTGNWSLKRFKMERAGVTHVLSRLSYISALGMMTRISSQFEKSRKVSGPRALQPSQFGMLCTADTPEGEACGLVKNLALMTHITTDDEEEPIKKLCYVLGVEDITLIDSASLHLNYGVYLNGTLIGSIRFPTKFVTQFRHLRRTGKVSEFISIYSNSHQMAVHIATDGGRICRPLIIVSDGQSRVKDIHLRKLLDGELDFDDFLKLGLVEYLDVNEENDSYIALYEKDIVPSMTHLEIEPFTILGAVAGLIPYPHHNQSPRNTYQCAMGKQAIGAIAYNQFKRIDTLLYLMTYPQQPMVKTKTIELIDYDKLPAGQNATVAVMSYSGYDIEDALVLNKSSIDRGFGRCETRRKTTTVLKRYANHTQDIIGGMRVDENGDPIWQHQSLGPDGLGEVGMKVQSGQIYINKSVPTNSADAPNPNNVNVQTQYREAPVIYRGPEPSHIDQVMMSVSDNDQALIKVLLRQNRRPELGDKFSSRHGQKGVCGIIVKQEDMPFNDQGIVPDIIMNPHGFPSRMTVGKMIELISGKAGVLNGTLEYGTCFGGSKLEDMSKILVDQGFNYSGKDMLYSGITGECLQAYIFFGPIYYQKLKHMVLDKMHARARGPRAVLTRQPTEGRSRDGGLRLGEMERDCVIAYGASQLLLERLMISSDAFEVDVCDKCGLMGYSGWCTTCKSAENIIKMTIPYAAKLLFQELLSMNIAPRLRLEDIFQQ

T3: RNA polymerase III subunit C53 (S. cerevisiae, UniProt P25441 1-422)
T3 sequence: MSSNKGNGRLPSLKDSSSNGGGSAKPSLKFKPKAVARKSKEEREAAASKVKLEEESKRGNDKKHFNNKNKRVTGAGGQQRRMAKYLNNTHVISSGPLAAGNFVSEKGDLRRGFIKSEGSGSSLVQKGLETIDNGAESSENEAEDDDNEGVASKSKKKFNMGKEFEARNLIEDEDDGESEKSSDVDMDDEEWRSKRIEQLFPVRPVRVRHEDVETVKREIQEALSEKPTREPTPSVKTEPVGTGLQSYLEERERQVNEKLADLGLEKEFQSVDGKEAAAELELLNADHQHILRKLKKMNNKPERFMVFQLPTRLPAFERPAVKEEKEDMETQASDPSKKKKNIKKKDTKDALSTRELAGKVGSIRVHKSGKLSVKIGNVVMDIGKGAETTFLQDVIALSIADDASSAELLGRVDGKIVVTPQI

T4: RNA polymerase III stalk subunit C25 (S. cerevisiae, UniProt P35718 1-212)
T4 sequence: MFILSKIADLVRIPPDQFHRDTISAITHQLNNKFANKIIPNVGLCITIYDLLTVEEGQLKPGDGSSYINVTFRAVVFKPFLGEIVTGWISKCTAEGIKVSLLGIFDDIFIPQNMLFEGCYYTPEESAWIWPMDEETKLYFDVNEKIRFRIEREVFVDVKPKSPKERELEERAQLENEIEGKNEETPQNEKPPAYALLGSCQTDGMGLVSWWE

B1: RNA polymerase III subunit C37 (natural protein, S. cerevisiae)
chain: MSIDNKLFVTEEDEEDRTQDRADVEDESNDIDMIADENGTNSAIANEQEEKSEEVKAEDDTGEEEEDDPVIEEFPLKISGEEESLHVFQYANRPRLVGRKPAEHPFISAARYKPKSHLWEIDIPLDEQAFYNKDKAESEWNGVNVQTLKGVGVENNGQYAAFVKDMQVYLVPIERVAQLKPFFKYIDDANVTRKQEDARRNPNPSSQRAQVVTMSVKSVNDPSQNRLTGSLLAHKVADEEANIELTWAEGTFEQFKDTIVKEAEDKTLVALEKQEDYIDNLV

Tests used:
Assay in all cases: cryo-EM structure
[1] = target: T1, RNA polymerase III subunit C160
[2] = target: B1
[3] = target: T2, RNA polymerase III subunit C128
[4] = target: T3, RNA polymerase III subunit C53
[5] = target: T4, RNA polymerase III stalk subunit C25

Binder	binding result [1]	binding result [2]	binding result [3]	binding result [4]	binding result [5]
RNA polymerase III subunit C11 (natural protein, S. cerevisiae) MLSFCPSCNNMLLITSGDSGVYTLACRSCPYEFPIEGIEIYDRKKLPRKEVDDVLGGGWDNVDQTKTQCPNYDTCGGESAYFFQLQIRSADEPMTTFYKCVNCGHRWKEN	binds	binds	binds	–	–
B1	–	–	binds	binds	–
RNA polymerase III stalk subunit C17 (natural protein, S. cerevisiae) MKVLEERNAFLSDYEVLKFLTDLEKKHLWDQKSLAALKKSRSKGKQNRPYNHPELQGITRNVVNYLSINKNFINQEDEGEERESSGAKDAEKSGISKMSDESFAELMTKLNSFKLFKAEKLQIVNQLPANMVHLYSIVEECDARFDEKTIEEMLEIISGYA	binds	–	–	–	binds
